Our source for the REVEAL score, IC50 and REVEAL Score values is patent US20180280496A1.

The target of experiment [1] is T1, H-2Kb (mouse), P01901.
T1 chain: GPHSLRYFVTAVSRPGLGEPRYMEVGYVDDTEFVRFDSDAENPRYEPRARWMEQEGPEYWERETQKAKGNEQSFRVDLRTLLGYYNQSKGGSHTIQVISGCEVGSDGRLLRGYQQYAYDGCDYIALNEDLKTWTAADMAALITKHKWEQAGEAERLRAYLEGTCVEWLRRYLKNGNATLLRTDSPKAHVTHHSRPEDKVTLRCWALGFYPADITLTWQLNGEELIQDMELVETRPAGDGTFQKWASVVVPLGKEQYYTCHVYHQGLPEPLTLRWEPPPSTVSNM
As to the kind of experiment: ProImmune REVEAL MHC class I-peptide binding assay.

Experiment [2] concerns the target A*02:01 (human), P04439. As to the kind of experiment: ProImmune REVEAL MHC class I-peptide binding assay.
Experiment [3] addresses A*24:02 (human), P04439. As to the kind of experiment: ProImmune REVEAL MHC class I-peptide binding assay.
The target of experiment [4] is B*07:02 (human), P01889. As to the kind of experiment: ProImmune REVEAL MHC class I-peptide binding assay.
For experiment [5], the target named is A*11:01 (human), P04439. The note with it: modification not given.
For experiment [6], the target named is A*24:02 (human), P04439. The conditions noted are these: modification not given.
For experiment [7], the target named is A*24:02 (human), P04439. The conditions noted are these: modification not given. The source holds these as a separate data set.
Experiment [8] addresses A*11:01 (human), P04439. As to the kind of experiment: ProImmune REVEAL MHC class I-peptide binding assay.
In experiment [9] the target is A*11:01 (human), P04439. The note with it: modification not given. The source holds these as a separate data set.
The target of experiment [10] is A*02:01 (human), P04439. As to the kind of experiment: ProImmune REVEAL MHC class I-peptide binding assay, A*02:01.
Experiment [11] concerns the target A*02:01 (human), P04439. The conditions noted are these: chains peptide; modification not given.
The target of experiment [12] is B*27:05 (human), P01889. As to the kind of experiment: ProImmune REVEAL MHC class I-peptide binding assay.
For experiment [13], the target named is A*11:01 (human), P04439. The note with it: modification not given. The source holds these as a separate data set.
For experiment [14], the target named is A*02:01 (human), P04439. The conditions noted are these: chains peptide; modification not given. The source holds these as a separate data set.
Experiment [15] has as its target A*11:01 (human), P04439. The note with it: modification not given. This is another data set of the same source.

Where “and” joins values, the source holds several entries; their conditions need not be identical. Equal entries are not always repeated. Where two headings read alike, the source gives them in different places.

B1: … (peptide)
peptide: LAPTRVVAA
modifications: not checked
Take B1: the REVEAL score at 0 h in experiment [1] was determined as 102.

B2: … (peptide)
peptide: KLTYQNKVV
modifications: not checked
Turning to B2, in [2], the REVEAL score at 0 h was 92.3.

B3: … (peptide)
peptide: CHATFTMRL
modifications: not checked
In the case of B3, the REVEAL score at 0 h in experiment [3] came out at 75.9; in experiment [1] it was 60.3.

B4: … (peptide)
peptide: LMRRGDLPV
modifications: not checked
Consider B4, for which the REVEAL score at 0 h came to 179 in [4] and 82.3 in [2].

B5: SEQ ID NO: 309 serotype 3 (peptide)
chain: VTFKNAHAK
Consider B5, for which the IC50 (commonly the midpoint of a concentration-inhibition curve) in [5] stood at 17 nM.

B6: … (peptide)
peptide: PERVILAGP
modifications: not checked
The molecule B6 displayed an REVEAL score at 0 h in [4] of 56.1.

B7: … (peptide)
peptide: IPERSWNSG
modifications: not checked
B7 had an REVEAL score at 0 h in experiment [4] of 45.2.

B8: SEQ ID NO: 308 serotype 2 (peptide)
chain: SYSMCTGKF
In [6], B8 gave an IC50 of 115 nM.

B9: SEQ ID NO: 308 serotype 3 (peptide)
chain: SYAMCLNTF
B9: the IC50 in experiment [7] was 540 nM.

B10: … (peptide)
peptide: HWTEAKMLL
modifications: not checked
As for B10, the REVEAL score at 0 h in experiment [3] was 103.

B11: … (peptide)
peptide: ATFTMRLLS
modifications: not checked
For B11, the results for the REVEAL score at 0 h in experiment [8] and in [1] were 58.5 and 55.6, respectively.

B12: SEQ ID NO: 309 serotype 1 (peptide)
chain: VTFKTAHAK
B12: the IC50 in experiment [9] came to 16 nM.

B13: … (peptide)
peptide: KQWFLDLPL
modifications: not checked
Molecule B13 yielded an REVEAL Score in experiment [10] of 86. In experiment [11], this molecule registered an IC50 of 11 nM.

B14: … (peptide)
peptide: FKLTYQNKV
modifications: not checked
With B14, the REVEAL score at 0 h in experiment [12] came out at 53.7.

B15: … (peptide)
peptide: QQRVFKEKV
modifications: not checked
B15: in [1], the REVEAL score at 0 h came out at 63.4.

B16: SEQ ID NO: 309 serotype 4 (peptide)
chain: VTFKVPHAK
For the molecule B16, the IC50 in experiment [13] amounted to 14 nM.

B17: … (peptide)
peptide: GLYGNGVVT
modifications: not checked
The molecule B17 gave an REVEAL score at 0 h in experiment [2] of 87.7.

B18: … (peptide)
peptide: WTEAKMLLD
modifications: not checked
As for B18, the REVEAL score at 0 h in experiment [3] is 94.7.

B19: … (peptide)
peptide: IVDLMCHAT
modifications: not checked
In turn, B19 showed an REVEAL score at 0 h in experiment [2] of 62.7.

B20: … (peptide)
peptide: YGLNTFTNM
modifications: not checked
With B20, the REVEAL score at 0 h in [1] worked out at 75.4.

B21: … (peptide)
peptide: GEAAAIFMT
modifications: not checked
Consider B21, for which the REVEAL score at 0 h came to 50.3 in experiment [8], 74.3 in experiment [2] and 58.9 in [3].

B22: … (peptide)
peptide: VGTYGLNTF
modifications: not checked
B22 had an REVEAL score at 0 h in experiment [3] of 96.

B23: … (peptide)
peptide: RQWFFDLPL
modifications: not checked
In [10], B23 showed an REVEAL Score of 80.5. In experiment [14], the IC50 is 12 nM and 39 nM.

B24: … (peptide)
peptide: ARGYISTRV
modifications: not checked
As for B24, in [12], the REVEAL score at 0 h came out at 125.

B25: … (peptide)
peptide: LMYFHRRDL
modifications: not checked
Consider B25, for which the figures for the REVEAL score at 0 h in experiment [4], in experiment [2] and in experiment [1] were 120, 97.8 and 54.9, respectively.

B26: … (peptide)
peptide: TVWFVPSIK
modifications: not checked
Regarding B26, in experiment [8], the REVEAL score at 0 h amounted to 92.2.

B27: … (peptide)
peptide: GTYGLNTFT
modifications: not checked
As to B27, the REVEAL score at 0 h in [8] was 63.6.

B28: SEQ ID NO: 309 serotype 2 (peptide)
chain: VTFKNPHAK
B28 registered an IC50 in experiment [15] of 17 nM.

B29: … (peptide)
peptide: LMCHATFTM
modifications: not checked
As for B29, the REVEAL score at 0 h in experiment [2] is 72.9; in experiment [12] it was 98.2; in experiment [3] it was 99.5; in [1], 59.

B30: … (peptide)
peptide: SRNSTHEMY
modifications: not checked
The molecule B30 registered an REVEAL score at 0 h in experiment [4] of 52.

B31: … (peptide)
peptide: ISGDDCVVK
modifications: not checked
The molecule B31 had an REVEAL score at 0 h in experiment [8] of 88.7.

B32: … (peptide)
peptide: MWHVTRGAV
modifications: not checked
In turn, B32 yielded an REVEAL score at 0 h in experiment [2] of 62.7.

B33: … (peptide)
peptide: AISGDDCVV
modifications: not checked
In the case of B33, the REVEAL score at 0 h in [2] came out at 91.1.

B34: … (peptide)
peptide: RRGDLPVWL
modifications: not checked
In experiment [12], B34 showed an REVEAL score at 0 h of 145.

B35: … (peptide)
peptide: LSRNSTHEM
modifications: not checked
For B35, the figures for the REVEAL score at 0 h in experiment [4] and in [1] were 124 and 51.1, respectively.

B36: … (peptide)
peptide: YFHRRDLRL
modifications: not checked
On to B36, for which the REVEAL score at 0 h in experiment [3] was found to be 87.5.

B37: … (peptide)
peptide: MGEAAAIFM
modifications: not checked
In [2], B37 returned an REVEAL score at 0 h of 50.6.

B38: … (peptide)
peptide: FKPGTSGSP
modifications: not checked
As to B38, the REVEAL score at 0 h was 50.4 in experiment [4] and 45.7 in experiment [1].

B39: … (peptide)
peptide: PLSRNSTHE
modifications: not checked
In [4], B39 showed an REVEAL score at 0 h of 65.

B40: … (peptide)
peptide: HATFTMRLL
modifications: not checked
B40 gave an REVEAL score at 0 h in [1] of 69.5.

B41: … (peptide)
peptide: VVAAEMEEA
modifications: not checked
B41: in experiment [2], the REVEAL score at 0 h came to 92.2.

B42: … (peptide)
peptide: TALTGATEI
modifications: not checked
In experiment [10], B42 gave an REVEAL Score of 0.9.
